Legend:
[1] = target: (His)Rpo3ΔFeS2 (Methanosarcina acetivorans) (UniProt P0CG28); experiment: pull-down; merodiploid M. acetivorans strains (native Rpo3 also present), tetracycline-induced; (His)Rpo3 variant held on Ni2+-agarose from lysate, anaerobic; eluates normalised to 15 ng (His)Rpo3; western blot for Rpo11, Rpo2′, Rpo1″
[2] = target: (His)Rpo3ΔFeS1 (Methanosarcina acetivorans) (UniProt P0CG28)
[3] = target: (His)Rpo3mFeS2 (Methanosarcina acetivorans) (UniProt P0CG28)
[4] = target: (His)Rpo3, N-terminally histidine-tagged wild-type Rpo3 expressed in Methanosarcina acetivorans (Methanosarcina acetivorans) (UniProt P0CG28)
[5] = target: (His)Rpo3ΔD3 (Methanosarcina acetivorans) (UniProt P0CG28)

Row | percent less in the eluate than with (His)Rpo3 (band intensity) [1] | nonspecific transcription (RNAP) activity of the imidazole eluate, gene replacement strain DJL52 (counts per min ng^-1 Rpo3) [2] | nonspecific transcription (RNAP) activity of the imidazole eluate, gene replacement strain DJL55 (counts per min ng^-1 Rpo3) [3] | nonspecific transcription (RNAP) activity of the imidazole eluate, gene replacement strain DJL51 (counts per min ng^-1 Rpo3) [4] | nonspecific transcription (RNAP) activity of the imidazole eluate, gene replacement strain DJL54 (counts per min ng^-1 Rpo3) [5] | Substance
1 | 50 % less |  |  |  |  | Rpo2′ (RpoB′), catalytic subunit of Methanosarcina acetivorans RNA polymerase (from UniProt Q8TRB6 1-604) (natural protein)
2 |  | 33 | 94 | 210 | 90 | Rpo1″ (RpoA″), catalytic subunit of Methanosarcina acetivorans RNA polymerase (natural protein)

Reference: PMC5300874
